Assay results published in patent US7888068B2, “Cloning of honey bee allergen C” (PLS-Design GmbH, priority 2006, dated 2011).
“Also recorded” adds a separate entry of the source.

B1: Api m 5 (protein)
chain: KSVPRVIDQDLERYEPLEEEDHRGARVPFNLEETYDQSFRANSFNGTWKTDREILYSDNYVGDIRLFDVTTGSGTVLLDSSVTADFDKASVMFSFDNSHVAIGHDYVNGFRYSIHQKCTVYNIKSRTFTDIANGDRIPLFKWSPTRNALIYVHKNDIYYQVFFEGGSDTRRITNTGVPDIVFNGIPDWVYEEEVLGSPVAFWISPDGRHLAFATFNDTNVRDIVISKYGSPGNSRDQYPNEIRIKYPKAGTTNPFVSLSVIDLHDPSSKLIDLPPPVDVVGADNVLYTANWRRDGEIVATWTNRVQNKAQLVLYDTKGNANNIYYEEETEGWLRIQPPLYHDRYVIVAKLQDSGTKAGRFLHATRLEYRNGALVDETDLTPGTCEVISLLLVDHARARLYYLGTELGKPSHKNLYSVQLSGNEPPVCLSCDVLTPEGNRCTYAYAYFSTNGSHYALYCAGPDPVFIAIVNANHRQISIWEENRSLRRKLAARTQPIVKNFNVNANGYTNKVKLYLPPDFDETKKYPLLITVYAGPNTIRITEEATYGFESYIVTNRSVIYGRIDGRGSAYKGSKMLFEIYRRLGTVEIEDQIIITRTLQEKYSWIDSNRTGIWGWSYGGFSAAMVLATDAESVFKCGISVAPVTSWIYYDSLYTERFMGLPTPEDNQSGYNDTDVSRRVEGMRGKKYMLIHGTADDNVHYQQTMMLNKALVNSDIMFQQQTYTDEAHALGNVFPHLYHTTDRFWANCLGYSH
B2: recombinant Api m 5: cloned recombinant Api m 5 expressed from vector pIB/Api5 with melittin signal sequence and His-tag (protein, listed as Apis mellifera)
chain: MEVLVQLALLLVVHGSLVVLVAGKSVPRVIDQDLERYEPLEEEDHRGARVPFNLEETYDQSFRANSFNGTWKTDREILYSDNYVGDIRLFDVTTGSGTVLLDSSVTADFDKASVMFSFDNSHVAIGHDYVNGFRYSIHQKCTVYNIKSRTFTDIANGDRIPLFKWSPTRNALIYVHKNDIYYQVFFEGGSDTRRITNTGVPDIVFNGIPDWVYEEEVLGSPVAFWISPDGRHLAFATFNDTNVRDIVISKYGSPGNSRDQYPNEIRIKYPKAGTTNPFVSLSVIDLHDPSSKLIDLPPPVDVVGADNVLYTANWRRDGEIVATWTNRVQNKAQLVLYDTKGNANNIYYEEETEGWLRIQPPLYHDRYVIVAKLQDSGTKAGRFLHATRLEYRNGALVDETDLTPGTCEVISLLLVDHARARLYYLGTELGKPSHKNLYSVQLSGNEPPVCLSCDVLTPEGNRCTYAYAYFSTNGSHYALYCAGPDPVFIAIVNANHRQISIWEENRSLRRKLAARTQPIVKNFNVNANGYTNKVKLYLPPDFDETKKYPLLITVYAGPNTIRITEEATYGFESYIVTNRSVIYGRIDGRGSAYKGSKMLFEIYRRLGTVEIEDQIIITRTLQEKYSWIDSNRTGIWGWSYGGFSAAMVLATDAESVFKCGISVAPVTSWIYYDSLYTERFMGLPTPEDNQSGYNDTDVSRRVEGMRGKKYMLIHGTADDNVHYQQTMMLNKALVNSDIMFQQQTYTDEAHALGNVFPHLYHTTDRFWANCLGYSH
modifications: His-tag, melittin signal

What was measured:
[1] = test system: IgE from pooled serum from honey bee allergic patients; assay: Immunoprinting of enriched Api m 5 with pooled serum from honey bee allergic patients (AlaBLOT, anti-IgE detection); assay type: binding, human; settings: pooled serum from honey bee allergic patients diluted 1:10; anti-IgE alkaline phosphatase conjugate; BSA negative control
Method: Detection was performed with anti-IgE alkaline phosphatase conjugate (DPC Alablot system). Lane 1: BSA, negative control; Lane 2: honey bee venom; Lane 3: Enriched Api m 5 fraction; Lane 4: Protein standard (PageRuler™ Prestained Protein Standard, Fermentas GmbH).
Immunoprinting was performed to verify the allergic potential of enriched Api m 5. Two SDS-PAGE gel slabs with each containing samples of bovine serum albumin, honey bee venom and bee venom enriched in Api m 5, were run and eletroblotted onto a nitrocellulose membranes (Protran™, Whatman GmbH, Dassel, Germany). The nitrocellulose membranes were pre-equilibrated in transfer buffer (20 mm CAPS, pH 11, 10% (v/v) methanol). Transfer was done at 50V for 3 hours submersed in blotting buffer in a blotting chamber (model TE22, Amersham Pharmacia, Freiburg, Germany) according to the instructions of the manufacturer. One membrane was subsequently stained with coomassie brilliant blue G250 according to the instructions of the manufacturer. […] Using the AlaBLOT system kit (DPC Biermann GmbH, Bad Nauheim, Germany) blocked sample strips were incubated with pooled serum from honey bee allergic patients diluted 1:10, washed and analyzed for binding of anti-IgE antibodies.

bee venom allergic sera = settings: two studies (Ref. 10); cited from earlier work
[2] = test system: phospholipase A2 (Api m 1), hyaluronidase (Api m 2), acid phosphatase (Api m 3), and melittin (Api m 4); settings: versus Api m 1, Api m 2, Api m 3, Api m 4 and other minor components (Ref. 14); cited from earlier work
[3] = Dipeptidyl peptidase activity assay with Gly-Pro p-nitroanilide substrate; assay type: biochemical; settings: 0.5 mM Gly-Pro-pNA, 25° C., monitored at 405 nm, compared to buffer alone
Method: One putative target of the enzyme might be the specific cleavage of the N-terminal peptide of pro-melittin to generate active melittin. The cleavage releases dipeptides with a C-terminal proline. Activity of such dipeptidases can be examined using the substrate Gly-Pro p-nitroanilide hydrochloride (Ref 22). Purified Api m 5 in NTA-binding buffer containing 300 mmol/L was incubated with 0.5 mM glycylpropyl p-nitroanilide (Gly-Pro-pNA, Sigma-Aldrich GmbH, Munich, Germany) as a substrate at 25° C. Released p-nitroaniline was spectrophotometrically monitored at 405 nm (FIG. 10).

Molecule	binding of IgE / allergic potential in immunoprinting [1]	reaction of bee venom allergic sera (bee venom allergic sera)	cross-reactivity in immunodiffusion [2]	dipeptidyl peptidase activity (release of p-nitroaniline) [3]
B1	binds to sIgE of honey bee allergic patients; also recorded: exhibited the allergic potential as seen in whole bee venom	virtually all tested bee venom allergic sera have been shown to react	noncross-reactive	
B2				Clearly the peptidase activity of recombinant Api m 5 in releasing the chromogenic label from the dipeptide can be seen; also recorded: showed a dipeptidyl peptidase activity
